In assay [1] the target is T1, hTregL1-his chymotryptic peptide 472-492 (human).
T1 sequence (peptide): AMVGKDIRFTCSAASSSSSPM
Description: affinity-MS: chymotryptic antigen peptides eluted from antibody-CNBr column, LC-MS.

The target in assay [2] is T2, hTregL1-his chymotryptic peptide 728-744 (human).
T2 sequence (peptide): TCEMSNTLGTERAHSQL
The assay is described as above.

Assay [3] concerns the target T3, hTregL1-his chymotryptic peptide 402-416 (human).
T3 sequence (peptide): HISSDSFLCDCQLKW
The description is as above.

Assay [4] addresses T4, hTregL1-his chymotryptic peptide 585-598 (human).
T4 sequence (peptide): ECAATGHPNPQIAW
Described as above.

Assay [5] concerns the target T5, hTregL1-his chymotryptic peptide 113-134 (human).
T5 sequence (peptide, N-glycan at 116(N)): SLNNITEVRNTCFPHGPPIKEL
The description is as above.

Assay [6] addresses T6, hTregL1-his chymotryptic peptide 529-535 (human).
T6 sequence (peptide): HLRQVTF
The assay is described as above.

In assay [7] the target is T7, hTregL1-his chymotryptic peptide 427-440 (human).
T7 sequence (peptide): QAFVTATCAHPESL
The assay is described as above.

Assay [8] concerns the target T8, hTregL1-his chymotryptic peptide 536-553 (human).
T8 sequence (peptide): GHEGRYQCVITNHFGSTY
The description is as above.

Assay [9] concerns the target T9, hTregL1-his chymotryptic peptide 327-344 (human).
T9 sequence (peptide): DLDHNEISGTIEDTSGAF
The description is as above.

The target of assay [10] is T10, hTregL1-his chymotryptic peptide 624-636 (human).
T10 sequence (peptide): FITDVKIDDAGVY
Described as above.

In assay [11] the target is T11, hTregL1-his chymotryptic peptide 430-446 (human).
T11 sequence (peptide): VTATCAHPESLKGQSIF
The description is as above.

Assay [12] has as its target T12, hTregL1-his chymotryptic peptide 270-280 (human).
T12 sequence (peptide): SFCQKLHELVL
The assay is described as above.

The target of assay [13] is T13, hTregL1-his chymotryptic peptide 637-653 (human).
T13 sequence (peptide, N-glycan at 650(N)): SCTAQNSAGSISANATL
The description is as above.

Assay [14] addresses T14, hTregL1-his chymotryptic peptide 447-471 (human).
T14 sequence (peptide): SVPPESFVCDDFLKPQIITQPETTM
Described as above.

Assay [15] deals with T15, hTregL1-his chymotryptic peptide 430-440 (human).
T15 sequence (peptide): VTATCAHPESL
The assay is described as above.

Assay [16] deals with T16, hTregL1-his tryptic peptide 499-531 (human).
T16 sequence (peptide): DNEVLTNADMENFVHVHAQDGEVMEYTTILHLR
Briefly: affinity-MS: tryptic antigen peptides eluted from antibody-CNBr column, LC-MS.

Assay [17] has as its target T17, hTregL1-his tryptic peptide 499-529 (human).
T17 sequence (peptide): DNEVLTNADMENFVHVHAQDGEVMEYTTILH
Described as above.

In assay [18] the target is T18, hTregL1-his tryptic peptide 498-531 (human).
T18 sequence (peptide): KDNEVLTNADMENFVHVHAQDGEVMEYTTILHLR
The description is as above.

“And” between values parts separate entries of the source, which are not always exact repeats. Identical values can stand only once.

This note sets out measurements from patent EP4678655A1.

B1: GTC310-01-hlgG1 (antibody, human IgG1, kappa, V domains shown)
VH: EVQLLESGGGLVQPGGSLRLSCAASGFTFSNYAMSWVRQAPGKGLEWVSVISHGGGSTYYADSVKGRFTISRDNSKNTLYLQMNSLRAEDTAVYYCARVISNCHLGVCYYSNGMDVWGQGTLVTVSS
VL: QLVLTQPPSVSAAPGQRVSISCSGSSSNIGDNYVSWYQQVPGSAPKLLIYDNNKRPSGIPDRFSASKSGTSATLGITGLQTGDEADYYCATWDGSLSAGRVFGGGTKLTVLR
Consider B1, for which the MS Area was 407000 and 325000 in [1]; 335000 and 736000 in [2]; 1.67e+07 and 7.24e+06 in assay [3]; 766000 and 374000 in assay [4]; 556000 and 544000 in assay [5]; 378000 and 312000 in assay [6]. In addition, the MS Area is 1.05e+06 and 554000 in assay [7]; 497000 and 295000 in assay [8]; 283000 and 298000 in assay [9]; 473000 and 399000 in assay [10]; 1e+06 and 705000 in assay [11]; 459000 and 335000 in assay [12]. Further, the MS Area in assay [13] is 334000 and 207000; in assay [14], 1.62e+06 and 1.32e+06; in [15] it was 1.59e+07 and 1.18e+07; in [16] it was 1.9e+07 (2×) and 6.9e+06; in [17], 1.21e+06 and 726000 and 442000; in assay [18], 7.66e+06 and 4.64e+06 and 4.1e+06.
